T1: hICOS.mFC (human, UniProt Q9Y6W8 21-140)
T1 construct: not shown: mFc tag
T1 sequence (looked up): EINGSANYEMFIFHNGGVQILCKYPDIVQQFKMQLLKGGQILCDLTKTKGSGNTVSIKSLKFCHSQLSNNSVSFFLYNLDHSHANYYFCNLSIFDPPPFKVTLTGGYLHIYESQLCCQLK


What was measured:
[1] = biological target: T2, human CTLA-4 on transfected cells (human, UniProt P16410 36-223); test: FACS on CTLA-4 transfected cells; antibody incubated in human serum at 37 C for 14 days
T2 construct: whole, on cells; also called cell surface human CTLA-4; hCTLA4 transfected cells
Experimental: (§1) Testing antibodies were incubated in freshly isolated human serum (serum content >90%) at 37° C. On indicated time points, an aliquot of serum treated sample was removed from the incubator and snap frozen in liquid nitrogen, and then stored at −80° C. until test. The samples were quickly thawed immediately prior to the stability test. Serial dilutions of antibodies were incubated with CTLA-4 transfected cells for 1 hour at 4° C. After washing, FITC conjugated goat anti-human IgG antibody (Jackson ImmunoResearch) was added to the cells and incubated at 4° C. for 1 hour. Finally, the cells were washed and resuspended in 1% BSA-PBS. The MFI fluorescence values were measured by flow cytometry and analyzed by FlowJo.

[2] = biological target: T3, human CTLA-4 ECD protein (in house) (human, UniProt P16410 36-161); test: competition (epitope binning) ELISA on coated human CTLA4 protein; competitor 0.02 ug/ml W316-BMK1-Biotin, detected with streptavidin-HRP
T3 construct: extracellular domain; also called immobilized human CTLA-4 ECD protein; hCTLA-4; not shown: 6xHis or Fc tag
Experimental: After washing, HRP-conjugated streptavidin were added and incubated for 1 hour. The color was developed by dispensing TMB substrate, and then stopped by 2N HCl. The absorbance was read at 450 nm using a Microplate Spectrophotometer (SpectraMax® M5e).

[3] = biological target: T4, cynomolgus CTLA-4 ECD protein (in house) (Macaca fascicularis (cynomolgus monkey), UniProt G7PL88 36-161); test: ELISA, cyno CTLA4 ECD coated at 1.0 µg/ml
T4 construct: also called immobilized cyno CTLA-4 ECD protein; cyno CTLA4 ECD protein; not shown: C-terminal tag: 6xHis or Fc
Experimental: (§2) After blocking with 2% BSA-PBS, serial diluted antibodies were added into each well and incubated for 1 hour at room temperature. HRP-labeled goat anti-human IgG (Bethyl A80-304P) were used as the secondary antibody and incubated for 1 hour. The color was developed by TMB substrate, and then stopped by 2N HCl. The absorbance was read at 450 nm using a Microplate Spectrophotometer (SpectraMax® M5e).
(§3) The binding of testing antibodies to […] was assessed by ELISA and FACS as the described above. […] For FACS binding, engineered Cynomolgus CTLA4 expressing cell pool was used.

[4] = biological target: T2, human CTLA-4 on transfected cells; test: FACS on human CTLA-4 expressing cells
Experimental: (§4) For FACS binding, engineered human CTLA-4 expressing cells were seeded at 1×10⁵ cells/well in U-bottom 96-well plates (COSTAR 3799). After centrifugation at 1500 rpm for 4 minutes at 4° C., the supernatants were moved and the serial dilutions of antibodies in 1% BSA-DPBS were added to the cells. The plates were incubated at 4° C. for 1 hour. […] The binding of the antibodies to the cells was tested by flow cytometry and the mean fluorescence intensity (MFI) was analyzed by FlowJo.

[5] = biological target: T2, human CTLA-4 on transfected cells; test: FACS on CTLA-4 transfected cells; antibody incubated in human serum at 37 C for 0 days
Experimental: as §1

[6] = biological target: T3, human CTLA-4 ECD protein (in house); test: competition ELISA, hCTLA4 ECD coated; competitor his-tagged hCD80
Experimental: (§5) After washing with PBST, biotin-labeled anti-His mAb (GenScript-A00613) was added and incubation 1 hour. […] The color reaction was developed by TMB substrate, and then stopped by 2N HCl. The absorbance was read at 450 nm using a Microplate Spectrophotometer (SpectraMax® M5e).

hCD28.mFc = biological target: T5, hCD28.mFc (human, UniProt P10747 19-152); test: ELISA on coated hCD28 (sheet prints 'hCD28.His', text says hCD28.mFc), detected with HRP goat anti-human IgG
T5 construct: not shown: mFc tag
Experimental: (§6) After blocking with 2% BSA-PBS, 10 μg/ml and 1.0 μg/ml of testing antibodies were respectively added into the plates and incubated for 1 hour at room temperature. The secondary antibody HRP-labeled goat anti-human IgG (Bethyl A80-304P) was then added and incubated for 1 hour. Washes with PBST were performed between each step. The color reaction was developed by TMB substrate, and then stopped by 2N HCl. The absorbance was read at 450 nm using a Microplate Spectrophotometer (SpectraMax® M5e).

hPD-1.mFc = biological target: T6, hPD-1.mFc (human, UniProt Q15116 25-170); test: ELISA on coated hPD1 (sheet prints 'hPD1.His', text says hPD-1.mFc), detected with HRP goat anti-human IgG
T6 construct: not shown: mFc tag
Experimental: as §6

hBTLA.His = biological target: T7, hBTLA.His (human, UniProt Q7Z6A9 31-157, limits assumed); test: ELISA on coated BTLA.His, detected with HRP goat anti-human IgG
T7 construct: not shown: His tag
Experimental: as §6

[7] = biological target: T2, human CTLA-4 on transfected cells; test: FACS on CTLA-4 transfected cells; antibody incubated in human serum at 37 C for 7 days
Experimental: as §1

[8] = biological target: T3, human CTLA-4 ECD protein (in house); test: competition FACS, biotinylated hCTLA4 ECD; competitor hCD80 on transfected cells
Experimental: (§7) After washing, streptavidin PE (BD Pharmingen-554061) was added to the cells and incubated at 4° C. for 1 hour. The fluorescence values were measured by flow cytometry and analyzed by FlowJo.

hICOS.mFC = biological target: T1, hICOS.mFC; test: ELISA on coated hICOS.mFc, detected with HRP goat anti-human IgG
Experimental: as §6

[9] = biological target: T3, human CTLA-4 ECD protein (in house); test: competition ELISA, hCTLA4 ECD coated; competitor his-tagged hCD86
Experimental: as §5

[10] = biological target: T8, cynomolgus CTLA-4 on transfected cells (Macaca fascicularis (cynomolgus monkey), UniProt G7PL88 36-223); test: FACS on cynomolgus CTLA4 expressing cell pool
T8 construct: also called cell surface cyno CTLA-4; Cynomolgus CTLA4 expressing cell pool
Experimental: as §4, §3

[11] = biological target: T3, human CTLA-4 ECD protein (in house); test: ELISA, human CTLA4 ECD coated at 1.0 µg/ml
Experimental: as §2

[12] = biological target: T2, human CTLA-4 on transfected cells; test: FACS on CTLA-4 transfected cells; antibody incubated in human serum at 37 C for 1 day
Experimental: as §1

[13] = biological target: T3, human CTLA-4 ECD protein (in house); test: competition FACS, biotinylated hCTLA4 ECD; competitor hCD86 on transfected cells
Experimental: as §7

[14] = biological target: T2, human CTLA-4 on transfected cells; test: FACS on CTLA-4 transfected cells; antibody incubated in human serum at 37 C for 4 days
Experimental: as §1

[15] = biological target: T2, human CTLA-4 on transfected cells; test: FACS affinity on human CTLA-4 transfected cells (hPro1), quantitative beads
Experimental: (§8) Human CTLA-4 or cyno CTLA-4 transfected cells were plated into 96-well U-bottom plates (BD) at a density of 5×10⁴ cells/well. Testing antibodies were 1:2-fold serially diluted in 1% BSA-PBS and incubated with the cells at 4° C. for 1 hr. After centrifugation at 1500 rpm for 4 min, the supernatant was discarded. The secondary antibody FITC conjugated goat anti-human IgG Fc (Jackson Immunoresearch Lab) was added and incubated at 4° C. in the dark for 30 min. The cells were then washed once and re-suspended in 1% BSA-PBS for the analysis by flow cytometry (BD CantoII). Fluorescence intensity was converted to bound molecules/cell based on the quantitative beads (Quantum™ MESF Kits, Bangs Laboratories). KD was calculated using Graphpad Prism5.

[16] = biological target: T2, human CTLA-4 on transfected cells; test: cell-based or functional assay
[17] = biological target: T8, cynomolgus CTLA-4 on transfected cells; test: FACS affinity on cyno CTLA-4 transfected cells (cPro1), quantitative beads
Experimental: as §8

[18] = biological target: T9, human CTLA-4 ECD, His-tagged (human, UniProt P16410 36-161); test: SPR (Biacore T200), antibody captured by anti-human IgG Fc, CTLA-4 ECD his as analyte
T9 construct: extracellular domain; also called W316.hprol.ECD.his; hCTLA-4.His; not shown: hexa-histidine (6xHis) tag
Experimental: The experiment was to measure the on-rate constant (ka) and off-rate constant (kd) of the antibodies to CTLA-4 ECD based on SPR technology. The affinity constant (KD) is thus consequently determined. Biacore T200, Series S Sensor Chip CM5, Amine Coupling Kit, and 10XHBS-EP were from GE Healthcare. […] In immobilization step, the activation buffer was prepared by mixing 400 mM EDC and 100 mM NHS immediately prior to injection. The CM5 sensor chip was activated for 420 s with the activation buffer. 30 μg/mL of goat anti-human IgG Fc antibody in 10 mM NaAc (pH 4.5) was then injected to Fc1-Fc4 channels for 200 s at a flow rate of 5 μL/min. The chip was deactivated by 1 M ethanolamine-HCl (GE). Then the antibodies were captured on the chip. Briefly, 4 μg/mL antibodies in running buffer (HBS-EP+) was injected individually to Fc3 channel for 30 s at a flow rate of 10 μL/min. […] Regeneration buffer (10 mM Glycine pH 1.5) was injected at 10 μL/min for 30 s following every dissociation phase.

T9 sequence (P16410 36-161): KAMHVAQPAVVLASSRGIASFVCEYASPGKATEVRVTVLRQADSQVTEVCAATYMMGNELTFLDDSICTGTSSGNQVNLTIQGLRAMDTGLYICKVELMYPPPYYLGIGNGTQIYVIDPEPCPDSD
T3 sequence (P16410 36-161): as above
T2 sequence (P16410 36-223): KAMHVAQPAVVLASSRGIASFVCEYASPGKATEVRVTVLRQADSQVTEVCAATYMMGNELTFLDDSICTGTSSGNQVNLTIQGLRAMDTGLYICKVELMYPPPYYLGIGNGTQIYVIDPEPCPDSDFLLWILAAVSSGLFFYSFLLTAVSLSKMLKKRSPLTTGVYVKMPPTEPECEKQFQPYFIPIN
T8 sequence (G7PL88 entry or part of it limits assumed): as the sequence (P16410 36-223) above, with S14N, I18T, L106M counted along it
T6 sequence (Q15116 25-170): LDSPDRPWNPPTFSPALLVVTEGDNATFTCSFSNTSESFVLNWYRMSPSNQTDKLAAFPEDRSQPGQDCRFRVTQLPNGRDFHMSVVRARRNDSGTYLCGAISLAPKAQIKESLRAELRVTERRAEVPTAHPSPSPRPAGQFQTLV
T4 sequence (G7PL88 entry or part of it limits assumed): as the sequence (P16410 36-161) above, with S14N, I18T, L106M counted along it

| EC50 [1] [nM] | IC50 (read off the curve) [2] [nM] | EC50 [3] [nM] | EC50 [4] [nM] | EC50 [5] [nM] | IC50 [6] [nM] | binding result (hCD28.mFc) | binding result (hPD-1.mFc) | binding result (hBTLA.His) | EC50 [7] [nM] | IC50 [8] [nM] | binding result (hICOS.mFC) | IC50 [9] [nM] | EC50 [10] [nM] | EC50 [11] [nM] | EC50 [12] [nM] | IC50 [13] [nM] | EC50 [14] [nM] | Binder | further results |
| --- | --- | --- | --- | --- | --- | --- | --- | --- | --- | --- | --- | --- | --- | --- | --- | --- | --- | --- | --- |
| 0.244 | ~3 | 0.0732 | 0.325 | 0.214 | 1.1 | no binding (tested: 10 ug/ml) | no binding (tested: 10 ug/ml) | no binding (tested: 10 ug/ml) | 0.223 | 0.109 | no binding (tested: 10 ug/ml) | 2.06 | 1.5 | 0.0983 | 0.221 | 0.22 | 0.237 | W3166-z13 (Fc fusion, Tested as VHH linked to human IgG1 Fc; also called humanized VHH antibody W3166-z13; W3166-z13 VHH fused with Fc of human IgG1; not shown: human IgG1 Fc region) QVQLVESGGGLVQPGGSLRLSCAASGRTFSSYAMGWFRQAPGMEREFVASIRWSDQTTYVPNSVKGRFTISRDNSKNTLYLQMNSLRPEDTAVYYCATGPTRLSFYSGNYRTYDSWGQGTLVTVSS |  |
| 0.199 | ~3 | 0.0401 | 0.297 | 0.19 | 0.908 | no binding (tested: 10 ug/ml) | no binding (tested: 10 ug/ml) | no binding (tested: 10 ug/ml) | 0.221 | 0.0786 | no binding (tested: 10 ug/ml) | 1.67 | 1.16 | 0.0512 | 0.195 | 0.163 | 0.193 | W3166-z17 (Fc fusion, Tested as VHH linked to human IgG1 Fc; also called humanized VHH antibody W3166-z17; W3166-z17 VHH fused with Fc of human IgG1; not shown: human IgG1 Fc region) QVQLVESGGGVVQPGGSLRLSCAASGRTFSSYAMGWFRQAPGKEREFVASIRWSDQTTYVPNSVKGRFTISRDNSKNTLYLQMNSLRPEDTAVYYCATGPTRLSFYSGNYRTYDSWGQGTLVTVSS | Kd [15]: 0.049 nM; EC50 in inducing ADCC effect [16]: 0.247 nM; Kd [17]: 0.14 nM; Kd [18]: 3.13 nM; koff [18]: 0.0015 s⁻¹; kon [18]: 481000 M⁻¹ s⁻¹ |
